From patent publication US20100041096 come the findings set out here.

For one data set, the target named is His-BARD1 1-320 (UniProt Q99728).
The next data set has as its target His-BARD1 14-189 (UniProt Q99728).

His-BARD1 1-320, sequence (Q99728 1-320): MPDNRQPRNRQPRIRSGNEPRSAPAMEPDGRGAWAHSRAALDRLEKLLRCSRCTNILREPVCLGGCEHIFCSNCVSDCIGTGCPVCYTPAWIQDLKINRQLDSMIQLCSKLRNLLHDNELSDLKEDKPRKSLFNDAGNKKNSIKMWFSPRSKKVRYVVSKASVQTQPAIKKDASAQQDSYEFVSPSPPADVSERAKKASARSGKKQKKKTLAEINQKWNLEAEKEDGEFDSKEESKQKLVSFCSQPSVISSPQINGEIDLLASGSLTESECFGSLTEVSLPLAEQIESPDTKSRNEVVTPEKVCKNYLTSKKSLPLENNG
His-BARD1 14-189, sequence (Q99728 14-189): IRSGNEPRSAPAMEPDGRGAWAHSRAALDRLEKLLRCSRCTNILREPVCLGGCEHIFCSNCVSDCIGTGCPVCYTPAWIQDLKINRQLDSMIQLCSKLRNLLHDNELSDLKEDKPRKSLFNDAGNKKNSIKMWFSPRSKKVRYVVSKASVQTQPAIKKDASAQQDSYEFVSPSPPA

As to CDK2-cyclin E1, the “in vitro kinase assay ([gamma-32P]ATP, autoradiography)” value in the data set with His-BARD1 1-320 was “both His-BARD^14-180 and HA-BARD1^1-320 were phosphorylated in vitro with CDK2-cyclin E1 and CDK1-cyclinc B1”; with His-BARD1 14-189 it was “both His-BARD^14-180 and HA-BARD1^1-320 were phosphorylated in vitro with CDK2-cyclin E1 and CDK1-cyclinc B1”.
As for HA-CDK1-cyclin B1, the “in vitro kinase assay ([gamma-32P]ATP, autoradiography)” value with His-BARD1 1-320 was “both His-BARD^14-180 and HA-BARD1^1-320 were phosphorylated in vitro with CDK2-cyclin E1 and CDK1-cyclinc B1”; in the data set with His-BARD1 14-189 it was “both His-BARD^14-180 and HA-BARD1^1-320 were phosphorylated in vitro with CDK2-cyclin E1 and CDK1-cyclinc B1”.
